Changes are numbered by the printed parent chain. In names and notes the source's numbering stands. Read-outs that look alike come from different tables or passages of the source.
B1: IIA^Glc, the glucose-specific phosphocarrier protein of the phosphoenolpyruvate:glycose phosphotransferase system (natural protein)
chain: GLFDKLKSLVSDDKKDTGTIEIIAPLSGEIVNIEDVPDVVFAEKIVGDGIAIKPTGNKMVAPVDGTIGKIFETNHAFSIESDSGVELFVHFGIDTVELKGEGFKRIAEEGQRVKVGDTVIEFDLPLLEEKAKSTLTPVVISNMDEIKELIKLSGSVTVGETPVIRIKK
B2: R369A EGK (enzyme, Escherichia coli, UniProt P0A6F3 1-502, looked up)
chain: MTEKKYIVALDQGTTSSRAVVMDHDANIISVSQREFEQIYPKPGWVEHDPMEIWATQSSTLVEVLAKADISSDQIAAIGITNQRETTIVWEKETGKPIYNAIVWQCRRTAEICEHLKRDGLEDYIRSNTGLVIDPYFSGTKVKWILDHVEGSRERARRGELLFGTVDTWLIWKMTQGRVHVTDYTNASRTMLFNIHTLDWDDKMLEVLDIPREMLPEVRRSSEVYGQTNIGGKGGTRIPISGIAGDQQAALFGQLCVKEGMAKNTYGTGCFMLMNTGEKAVKSENGLLTTIACGPTGEVNYALEGAVFMAGASIQWLRDEMKLINDAYDSEYFATKVQNTNGVYVVPAFTGLGAPYWDPYARGAIFGLTAGVNANHIIRATLESIAYQTRDVLEAMQADSGIRLHALRVDGGAVANNFLMQFQSDILGTRVERPEVREVTALGAAYLAGLAVGFWQNLDELQEKAVIEREFRPGIETTERNYRYAGWKKAVKRAMAWEEHDE
B3: A65T EGK (enzyme, Escherichia coli, UniProt P0A6F3 1-502, looked up)
chain: B2 chain with A66T, A370R

Legend:
[1] = target: T1, Escherichia coli glycerol kinase (Escherichia coli, UniProt P0A6F3 1-502); assay: linked-functions initial-velocity enzyme kinetics
R369A EGK [2] = target: B2; assay: linked-functions initial-velocity enzyme kinetics
A65T EGK [3] = target: B3; assay: linked-functions initial-velocity enzyme kinetics
[4] = target: T1, Escherichia coli glycerol kinase; assay: linked-functions initial-velocity enzyme kinetics; remark: listed apart in the source
R369A EGK [5] = target: B2; assay: linked-functions initial-velocity enzyme kinetics; remark: listed apart in the source
A65T EGK [6] = target: B3; assay: linked-functions initial-velocity enzyme kinetics; remark: listed apart in the source
AUC = target: the molecule itself; assay: AUC

Binder: B1
Kd [1]: 4.6 µM | Kd (R369A EGK [2]): 1.8 µM | Kd (A65T EGK [3]): 8 µM | Kd [4]: 7 µM | Kd (R369A EGK [5]): 2 µM | Kd (A65T EGK [6]): 28 µM

Binder: B2
stoichiometry N (AUC): 4

Binder: B3
binding result (AUC): binds

Reference: publication PMC2789969 (Archives of biochemistry and biophysics, 2009)
